Measured values published in publication PMC4036194, “Crystal Structure and Molecular Imaging of the Nav Channel β3 Subunit Indicates a Trimeric Assembly*” (The Journal of Biological Chemistry, 2014).

Experiments:
[1] = target: T1, Human Nav 1.5 α subunit with a carboxyl-terminal hemagglutinin (HA) epitope tag (human, UniProt Q14524 1-2016); test: atomic force microscopy (AFM) imaging; α subunit isolated through its HA tag from tsA 201 cells co-transfected with wild-type Myc-tagged β3; co-isolated sample on mica, imaged in air in tapping mode; settings: both partners purified
T1 construct: Nav 1.5 sodium channel α subunit, human; ~250 kDa; Construct provided by Dr. C; source: tsA 201 cells, transfected (pcDNA3N); immunoisolated from detergent extract (anti-HA agarose, HA peptide elution); not shown: HA, C-terminal, kept

[2] = target: the molecule itself; test: fluorescence photoactivated localization microscopy (FPALM) with pair correlation analysis; mEos2 fusions on the plasma membrane of fixed, transfected HEK293 cells; TIRF-PALM; 30 regions of 1 μm^2 on five cells; proteins per cluster
[3] = target: the molecule itself; test: crystal structure; deglycosylated β3 Ig domain; sitting drop, 1 M sodium citrate tribasic, 0.1 M CHES/sodium hydroxide pH 9.5, 19 °C; space group P3(1)21, three molecules in the asymmetric unit; 2.5 Å

T1 sequence (Q14524 whole entry): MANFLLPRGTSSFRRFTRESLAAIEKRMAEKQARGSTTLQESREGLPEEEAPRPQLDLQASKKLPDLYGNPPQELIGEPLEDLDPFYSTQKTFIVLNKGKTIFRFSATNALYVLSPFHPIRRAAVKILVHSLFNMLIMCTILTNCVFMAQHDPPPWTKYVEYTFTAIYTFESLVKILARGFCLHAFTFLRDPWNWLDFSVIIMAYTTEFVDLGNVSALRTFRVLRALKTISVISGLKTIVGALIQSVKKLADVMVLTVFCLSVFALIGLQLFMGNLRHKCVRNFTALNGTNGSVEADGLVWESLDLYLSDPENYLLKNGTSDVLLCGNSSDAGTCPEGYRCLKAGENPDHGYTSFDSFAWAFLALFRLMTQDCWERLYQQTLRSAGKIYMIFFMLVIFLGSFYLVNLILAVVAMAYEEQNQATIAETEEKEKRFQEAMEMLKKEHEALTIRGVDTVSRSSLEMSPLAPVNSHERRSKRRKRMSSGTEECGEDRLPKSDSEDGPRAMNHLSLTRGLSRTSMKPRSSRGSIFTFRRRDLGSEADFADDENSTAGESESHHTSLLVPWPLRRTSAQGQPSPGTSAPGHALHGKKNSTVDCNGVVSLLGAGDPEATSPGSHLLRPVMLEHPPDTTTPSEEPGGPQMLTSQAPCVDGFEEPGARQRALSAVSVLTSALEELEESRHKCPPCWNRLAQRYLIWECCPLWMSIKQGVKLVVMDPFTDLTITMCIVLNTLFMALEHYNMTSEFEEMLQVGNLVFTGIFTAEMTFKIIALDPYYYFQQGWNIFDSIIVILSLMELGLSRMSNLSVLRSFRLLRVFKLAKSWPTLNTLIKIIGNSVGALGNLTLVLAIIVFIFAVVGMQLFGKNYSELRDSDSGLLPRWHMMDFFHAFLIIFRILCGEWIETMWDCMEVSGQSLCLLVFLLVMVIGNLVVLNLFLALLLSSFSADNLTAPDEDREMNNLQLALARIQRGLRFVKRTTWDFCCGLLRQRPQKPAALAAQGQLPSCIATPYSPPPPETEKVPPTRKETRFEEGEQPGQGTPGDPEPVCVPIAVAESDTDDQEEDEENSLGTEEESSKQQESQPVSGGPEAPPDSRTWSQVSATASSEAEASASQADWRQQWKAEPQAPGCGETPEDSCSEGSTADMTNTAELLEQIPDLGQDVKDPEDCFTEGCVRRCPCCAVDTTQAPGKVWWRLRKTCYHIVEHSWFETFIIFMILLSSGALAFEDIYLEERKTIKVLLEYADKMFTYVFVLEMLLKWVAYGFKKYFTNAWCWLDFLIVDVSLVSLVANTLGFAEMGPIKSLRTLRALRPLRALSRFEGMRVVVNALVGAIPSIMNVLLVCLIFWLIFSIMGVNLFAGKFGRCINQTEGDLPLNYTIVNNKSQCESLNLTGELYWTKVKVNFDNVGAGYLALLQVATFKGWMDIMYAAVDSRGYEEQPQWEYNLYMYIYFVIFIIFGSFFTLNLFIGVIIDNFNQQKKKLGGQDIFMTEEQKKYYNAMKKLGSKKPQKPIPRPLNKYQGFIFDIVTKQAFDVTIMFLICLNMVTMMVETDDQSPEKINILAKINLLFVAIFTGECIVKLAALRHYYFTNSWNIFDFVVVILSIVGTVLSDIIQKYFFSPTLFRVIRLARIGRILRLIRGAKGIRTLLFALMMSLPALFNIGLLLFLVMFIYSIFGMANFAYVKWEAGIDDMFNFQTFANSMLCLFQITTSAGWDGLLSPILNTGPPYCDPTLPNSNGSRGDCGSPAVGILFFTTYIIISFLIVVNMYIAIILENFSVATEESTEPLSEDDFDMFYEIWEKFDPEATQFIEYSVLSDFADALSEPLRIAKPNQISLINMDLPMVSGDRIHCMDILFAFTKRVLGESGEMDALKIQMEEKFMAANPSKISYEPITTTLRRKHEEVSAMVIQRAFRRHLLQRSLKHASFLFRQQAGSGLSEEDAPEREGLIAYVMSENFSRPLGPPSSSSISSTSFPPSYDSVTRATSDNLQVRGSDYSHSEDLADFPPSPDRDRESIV

B1: Full-length human β3 subunit with a carboxyl-terminal Myc epitope tag (natural protein, UniProt Q9NY72 23-215, looked up)
chain: FPVCVEVPSETEAVQGNPMKLRCISCMKREEVEATTVVEWFYRPEGGKDFLIYEYRNGHQEVESPFQGRLQWNGSKDLQDVSITVLNVTLNDSGLYTCNVSREFEFEAHRPFVKTTRLIPLRVTEEAGEDFTSVVSEIMMYILLVFLTLWLLIEMIYCYRKVSKAEEAAQENASDYLAIPSENKENSAVPVEE
notes: Nav channel β3 subunit (SCN3B), human, full length; runs at ~40 kDa (glycosylated) and ~30 kDa (likely unglycosylated); numbers count on: the mature protein; also called Myc-tagged β3 subunit; wild-type β3; source: tsA 201 cells, transfected (pFastBacMam); immunoisolated from detergent extract (anti-Myc agarose, Myc peptide elution); in detergent extract of co-transfected cells for co-isolation …
[1]
  stoichiometry N: 4

B2: Full-length β3 subunit tagged at the carboxyl terminus with mEos2 (natural protein, UniProt Q9NY72 23-215, looked up)
chain: FPVCVEVPSETEAVQGNPMKLRCISCMKREEVEATTVVEWFYRPEGGKDFLIYEYRNGHQEVESPFQGRLQWNGSKDLQDVSITVLNVTLNDSGLYTCNVSREFEFEAHRPFVKTTRLIPLRVTEEAGEDFTSVVSEIMMYILLVFLTLWLLIEMIYCYRKVSKAEEAAQENASDYLAIPSENKENSAVPVEE
notes: Nav channel β3 subunit (SCN3B), full length; also called β3-mEos2; β3-mEOS2; source: HEK293 cells, transiently transfected, on the plasma membrane of fixed cells; not shown: mEos2, C-terminal, kept
[2]
  stoichiometry N: 3

B3: Nav channel β3 subunit Ig domain with carboxyl-terminal hexa-His tag (domain or fragment, human)
chain: VCVEVPSETEAVQGNPMKLRCISCMKREEVEATTVVEWFYRPEGGKDFLIYEYRNGHQEVESPFQGRLQWNGSKDLQDVSITVLNVTLNDSGLYTCNVSREFEFEAHRPFVKTTRLIPLRV
modifications: disulfide bonds Cys-2–24 and Cys-21–96
notes: Nav channel β3 subunit (SCN3B), human, extracellular Ig domain; the cDNA also encodes the amino-terminal ER targeting signal, which was efficiently removed on secretion; 127 amino acids in total, theoretical mass 14.8 kDa; numbers count on: the mature protein; Deglycosylated with peptide:N-glycosidase F for crystallisation; chemically cross-linked for AUC; Surmise: the 127 residues are the mature …
[3]
  stoichiometry N: 3
